Assay results published in paper PMC9482650, “Quantitative fragmentomics allow affinity mapping of interactomes” (Nature Communications, 2022).

T1: DFNB31_1, Q9P202
T1 sequence (Q9P202 135-233, limits assumed, looked up): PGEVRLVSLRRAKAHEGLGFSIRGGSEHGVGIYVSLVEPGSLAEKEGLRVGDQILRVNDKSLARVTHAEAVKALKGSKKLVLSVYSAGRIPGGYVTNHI

T2: DFNB31_2, Q9P202
T2 sequence (Q9P202 274-371, limits assumed, looked up): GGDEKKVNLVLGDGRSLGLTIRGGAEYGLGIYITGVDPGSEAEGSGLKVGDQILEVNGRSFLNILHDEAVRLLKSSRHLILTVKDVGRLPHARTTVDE

T3: DLG3_3, Q92796
T3 sequence (Q92796 374-475, limits assumed, looked up): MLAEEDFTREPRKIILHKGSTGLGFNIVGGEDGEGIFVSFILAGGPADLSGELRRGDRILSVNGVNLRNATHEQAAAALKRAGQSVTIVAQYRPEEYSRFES

T4: DVL3, Q92997
T4 sequence (Q92997 244-331, limits assumed, looked up): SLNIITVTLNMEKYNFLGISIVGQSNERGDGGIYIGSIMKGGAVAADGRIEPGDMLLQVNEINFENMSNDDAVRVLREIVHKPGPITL

T5: HTRA4, P83105
T5 sequence (P83105 378-476, limits assumed, looked up): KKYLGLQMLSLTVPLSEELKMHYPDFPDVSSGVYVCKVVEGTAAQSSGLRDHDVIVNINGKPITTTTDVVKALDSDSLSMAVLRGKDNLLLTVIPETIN

T6: LIN7B, Q9HAP6
T6 sequence (Q9HAP6 88-185, limits assumed, looked up): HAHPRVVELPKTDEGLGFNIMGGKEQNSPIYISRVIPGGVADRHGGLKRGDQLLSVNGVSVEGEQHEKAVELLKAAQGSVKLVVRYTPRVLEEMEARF

T7: MPDZ_10, O75970
T7 sequence (O75970 1624-1722, limits assumed, looked up): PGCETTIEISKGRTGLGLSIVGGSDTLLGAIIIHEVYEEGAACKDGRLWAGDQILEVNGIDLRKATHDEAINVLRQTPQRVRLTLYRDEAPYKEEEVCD

T8: NHERF3_1, Q5T2W1
T8 sequence (Q5T2W1 4-100, limits assumed, looked up): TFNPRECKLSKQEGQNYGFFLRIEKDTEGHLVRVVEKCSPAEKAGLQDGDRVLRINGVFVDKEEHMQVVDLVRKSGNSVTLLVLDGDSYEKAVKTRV

T9: RAPGEF6, Q8TEU7
T9 sequence (Q8TEU7 525-625, limits assumed, looked up): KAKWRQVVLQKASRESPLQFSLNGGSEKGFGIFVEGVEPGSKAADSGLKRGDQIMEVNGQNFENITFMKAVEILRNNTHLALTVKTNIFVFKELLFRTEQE

T10: SNTA1, Q13424
T10 sequence (Q13424 82-180, limits assumed, looked up): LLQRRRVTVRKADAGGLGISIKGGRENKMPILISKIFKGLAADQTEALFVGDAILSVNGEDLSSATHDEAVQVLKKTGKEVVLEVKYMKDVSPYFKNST

T11: SNTG1, Q9NSN8
T11 sequence (Q9NSN8 52-150, limits assumed, looked up): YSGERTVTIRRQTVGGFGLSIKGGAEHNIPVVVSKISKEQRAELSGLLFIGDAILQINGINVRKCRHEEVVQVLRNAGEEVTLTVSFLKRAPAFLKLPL

T12: SNTG2, Q9NY99
T12 sequence (Q9NY99 68-166, limits assumed, looked up): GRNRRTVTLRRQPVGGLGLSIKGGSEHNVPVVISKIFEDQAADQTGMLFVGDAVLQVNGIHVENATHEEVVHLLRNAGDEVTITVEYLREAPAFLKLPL

T13: TIAM2, Q8IVF5
T13 sequence (Q8IVF5 885-986, limits assumed, looked up): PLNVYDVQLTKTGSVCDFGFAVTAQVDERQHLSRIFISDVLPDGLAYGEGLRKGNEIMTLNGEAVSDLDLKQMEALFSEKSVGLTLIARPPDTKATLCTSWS


Key:
Assay in all cases: holdup assay
Set-up in all cases: key: below the threshold = too weak to quantify, mostly under pKd 3.1 to 4
Settings in all cases: plain residues with an end cap or a label only (N-terminal biotin on a linker: ado-ado)
DFNB31_1, Q9P202 = biological target: T1, DFNB31_1, Q9P202
DFNB31_2, Q9P202 = biological target: T2, DFNB31_2, Q9P202
DLG3_3, Q92796 = biological target: T3, DLG3_3, Q92796
DLG5_1, Q8TDM6 = biological target: DLG5_1, Q8TDM6
DVL3, Q92997 = biological target: T4, DVL3, Q92997
FRMPD2_3, Q68DX3 = biological target: FRMPD2_3, Q68DX3
GORASP2, Q9H8Y8 = biological target: GORASP2, Q9H8Y8
GRIP2_5, Q9C0E4 = biological target: GRIP2_5, Q9C0E4
HTRA4, P83105 = biological target: T5, HTRA4, P83105
IL16_1, Q14005 = biological target: IL16_1, Q14005
IL16_4, Q14005 = biological target: IL16_4, Q14005
Inadl_8, Q8NI35 = biological target: Inadl_8, Q8NI35
LIMK2, P53671 = biological target: LIMK2, P53671
LIN7B, Q9HAP6 = biological target: T6, LIN7B, Q9HAP6
MPDZ_10, O75970 = biological target: T7, MPDZ_10, O75970
NHERF3_1, Q5T2W1 = biological target: T8, NHERF3_1, Q5T2W1
NOS1, P29475 = biological target: NOS1, P29475
PARD3_3, Q8TEW0 = biological target: PARD3_3, Q8TEW0
PDLIM1, O00151 = biological target: PDLIM1, O00151
RAPGEF6, Q8TEU7 = biological target: T9, RAPGEF6, Q8TEU7
SCRIB_1, Q14160 = biological target: SCRIB_1, Q14160
SNTA1, Q13424 = biological target: T10, SNTA1, Q13424
SNTG1, Q9NSN8 = biological target: T11, SNTG1, Q9NSN8
SNTG2, Q9NY99 = biological target: T12, SNTG2, Q9NY99
TIAM2, Q8IVF5 = biological target: T13, TIAM2, Q8IVF5

LIMK2, P53671, sequence (P53671 143-248): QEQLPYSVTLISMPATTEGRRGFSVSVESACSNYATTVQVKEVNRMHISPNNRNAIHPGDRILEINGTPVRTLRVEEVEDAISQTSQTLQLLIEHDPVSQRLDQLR
SCRIB_1, Q14160, sequence (Q14160 718-814): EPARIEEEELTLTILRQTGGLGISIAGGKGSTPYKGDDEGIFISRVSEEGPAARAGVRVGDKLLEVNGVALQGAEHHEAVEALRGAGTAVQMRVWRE
Inadl_8, Q8NI35, sequence (Q8NI35 1425-1530): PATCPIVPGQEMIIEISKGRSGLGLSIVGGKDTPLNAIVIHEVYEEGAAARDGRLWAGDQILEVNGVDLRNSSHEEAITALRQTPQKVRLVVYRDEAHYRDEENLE
IL16_1, Q14005, sequence (Q14005 210-306): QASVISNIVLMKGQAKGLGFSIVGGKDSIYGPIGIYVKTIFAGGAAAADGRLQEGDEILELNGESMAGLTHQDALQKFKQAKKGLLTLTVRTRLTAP
NOS1, P29475, sequence (P29475 9-101): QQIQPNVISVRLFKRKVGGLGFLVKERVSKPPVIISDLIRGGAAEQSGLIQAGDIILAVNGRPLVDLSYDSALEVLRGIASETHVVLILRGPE
DLG5_1, Q8TDM6, sequence (Q8TDM6 617-713): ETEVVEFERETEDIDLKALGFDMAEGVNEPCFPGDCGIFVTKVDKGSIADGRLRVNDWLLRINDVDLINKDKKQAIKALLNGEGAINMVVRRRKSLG
PDLIM1, O00151, sequence (O00151 1-87): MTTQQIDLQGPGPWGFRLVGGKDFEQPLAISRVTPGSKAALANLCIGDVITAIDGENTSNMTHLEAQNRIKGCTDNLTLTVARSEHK
FRMPD2_3, Q68DX3, sequence (Q68DX3 1073-1166): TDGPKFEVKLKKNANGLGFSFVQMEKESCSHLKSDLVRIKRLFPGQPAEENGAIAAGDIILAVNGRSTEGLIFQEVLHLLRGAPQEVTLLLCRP
IL16_4, Q14005, sequence (Q14005 1229-1329): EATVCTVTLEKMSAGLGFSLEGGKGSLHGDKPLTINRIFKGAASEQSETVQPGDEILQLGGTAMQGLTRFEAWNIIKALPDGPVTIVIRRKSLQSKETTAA
PARD3_3, Q8TEW0, sequence (Q8TEW0 582-685): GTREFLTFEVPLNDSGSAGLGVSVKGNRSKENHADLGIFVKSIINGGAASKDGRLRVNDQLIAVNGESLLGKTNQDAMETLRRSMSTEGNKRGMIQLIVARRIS
GRIP2_5, Q9C0E4, sequence (Q9C0E4 544-642): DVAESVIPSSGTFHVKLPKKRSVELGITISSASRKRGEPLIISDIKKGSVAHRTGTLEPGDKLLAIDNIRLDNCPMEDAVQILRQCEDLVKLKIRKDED

pKd (DFNB31_1, Q9P202)	pKd (DFNB31_2, Q9P202)	pKd (DLG3_3, Q92796)	pKd (DLG5_1, Q8TDM6)	pKd (DVL3, Q92997)	pKd (FRMPD2_3, Q68DX3)	pKd (GORASP2, Q9H8Y8)	pKd (GRIP2_5, Q9C0E4)	pKd (HTRA4, P83105)	pKd (IL16_1, Q14005)	pKd (IL16_4, Q14005)	pKd (Inadl_8, Q8NI35)	pKd (LIMK2, P53671)	pKd (LIN7B, Q9HAP6)	pKd (MPDZ_10, O75970)	pKd (NHERF3_1, Q5T2W1)	pKd (NOS1, P29475)	pKd (PARD3_3, Q8TEW0)	pKd (PDLIM1, O00151)	pKd (RAPGEF6, Q8TEU7)	Binder	further results
below the threshold	below the threshold	below the threshold	below the threshold	below the threshold	below the threshold	below the threshold	below the threshold	below the threshold	below the threshold	below the threshold	below the threshold	below the threshold	3.9	below the threshold	below the threshold	below the threshold	below the threshold	below the threshold	below the threshold	QLGSPTADLA [SIPA1, Q96FS4]	pKd (SCRIB_1, Q14160): below the threshold; pKd (SNTA1, Q13424): below the threshold; pKd (SNTG1, Q9NSN8): below the threshold; pKd (SNTG2, Q9NY99): below the threshold; pKd (TIAM2, Q8IVF5): 4.24
3.85	below the threshold	below the threshold	below the threshold	4.54	below the threshold	4.9	below the threshold	4.6	below the threshold	below the threshold	below the threshold	below the threshold	below the threshold	below the threshold	5.05	4.05	4.78	4.13	below the threshold	NKSEPFLTWL [WWTR1, Q9GZV5]	pKd (SCRIB_1, Q14160): 4.63; pKd (SNTA1, Q13424): below the threshold; pKd (SNTG1, Q9NSN8): below the threshold; pKd (SNTG2, Q9NY99): below the threshold; pKd (TIAM2, Q8IVF5): 3.65
3.82	below the threshold	4.43	3.72	below the threshold	3.53	4.25	3.48	below the threshold	3.48	below the threshold	4.38	below the threshold	below the threshold	3.92	3.63	4.02	below the threshold	below the threshold	below the threshold	THHRKIHTRV [ZNF599, Q96NL3]	pKd (SCRIB_1, Q14160): 3.98; pKd (SNTA1, Q13424): 4.3; pKd (SNTG1, Q9NSN8): 3.61; pKd (SNTG2, Q9NY99): 4.13; pKd (TIAM2, Q8IVF5): 3.57
4.11	below the threshold	below the threshold	below the threshold	below the threshold	below the threshold	below the threshold	below the threshold	3.85	3.94	3.61	below the threshold	below the threshold	below the threshold	below the threshold	5.58	below the threshold	3.48	below the threshold	below the threshold	AKADAQESRL [PLCB2, Q00722]	pKd (SCRIB_1, Q14160): 4.2; pKd (SNTA1, Q13424): 4.2; pKd (SNTG1, Q9NSN8): below the threshold; pKd (SNTG2, Q9NY99): 4.81; pKd (TIAM2, Q8IVF5): below the threshold
below the threshold	below the threshold	3.71	below the threshold	below the threshold	below the threshold	3.87	below the threshold	below the threshold	below the threshold	below the threshold	below the threshold	below the threshold	4.03	3.48	3.85	3.75	below the threshold	below the threshold	3.67	RGKNRRQSIF [CDK18, Q07002]	pKd (SCRIB_1, Q14160): below the threshold; pKd (SNTA1, Q13424): below the threshold; pKd (SNTG1, Q9NSN8): below the threshold; pKd (SNTG2, Q9NY99): below the threshold; pKd (TIAM2, Q8IVF5): below the threshold
3.56	below the threshold	below the threshold	below the threshold	below the threshold	below the threshold	below the threshold	below the threshold	3.92	below the threshold	3.7	below the threshold	below the threshold	3.56	below the threshold	3.67	below the threshold	3.84	below the threshold	below the threshold	VISSDDLTEL [CAPN6, Q9Y6Q1]	pKd (SCRIB_1, Q14160): 3.6; pKd (SNTA1, Q13424): below the threshold; pKd (SNTG1, Q9NSN8): below the threshold; pKd (SNTG2, Q9NY99): below the threshold; pKd (TIAM2, Q8IVF5): 3.96
